Experimental data from the FLAb antibody collection (doi:10.7554/elife.23156).

B1: scFv; the commonest letter at each place (parent)
chain 1: EVKLDETGGGLVQPGRPMKLSCVASGFTFSDYWMNWVRQSPEKGLEWVAQIRNKPYNYETYYSDSVKGRFTISRDDSKSSVYLQMNNLRVEDMGIYYCTGSYYGMDYWGQGTSVTVS
chain 2: DVVMTQTPLSLPVSLGDQASISCRSSQSLVHSNGNTYLRWYLQKPGQSPKVLIYKVSNRFSGVPDRFSGSGSGTDFTLKISRVEAEDLGVYFCSQSTHVPWTFGGGTKLEIK

Tests used:
fluorescein = variants of: B1; assay: Kd (Tite-Seq); conditions: with fluorescein; format: scFv 4-4-20, heavy + light
[1] = variants of: B1; assay: yeast surface expression (ratio to wild type); higher = more expressed; conditions: format: scFv 4-4-20, heavy + light

Variant	Kd (fluorescein)	yeast surface expression [1]
chain 1 D31H W33L	≥ 10 µM	0.72
chain 1 T28A W33R M34S	≥ 10 µM	1.12
chain 1 G100Y M105S	≥ 10 µM	0.377
chain 1 Y102M M105F	≥ 10 µM	0.995
chain 1 S30Q D31H Y32N	≥ 10 µM	0.857
chain 1 S101Q Y102D Y107P	≥ 10 µM	0.361
chain 1 S30Y V37H	≥ 10 µM	0.57
chain 1 S101W Y107K	≥ 10 µM	0.427
chain 1 G104S Y107K	≥ 10 µM	0.796
chain 1 S30Q D31E N35K	≥ 10 µM	2.59
chain 1 M34K W36F	≥ 10 µM	1.23
chain 1 S101P G104T M105Y	≥ 10 µM	0.208
chain 1 S101R Y107C	≥ 10 µM	0.286
chain 1 W33T M34S V37E	≥ 10 µM	0.787
chain 1 S101Q M105S	≥ 10 µM	0.853
chain 1 S30N N35T	≥ 10 µM	0.803
chain 1 G104H G109H	≥ 10 µM	0.765
chain 1 M105G D106Q	≥ 10 µM	0.514
chain 1 F29P W36E	≥ 10 µM	0.482
chain 1 G100R Y103D W108G	≥ 10 µM	0.483
chain 1 D106F G109A	≥ 10 µM	0.112

Variant	Kd (fluorescein)	yeast surface expression [1]
chain 1 Y103M D106F Y107G	≥ 10 µM	0.265
chain 1 G100C G104I	≥ 10 µM	0.267
chain 1 G100A D106W	≥ 10 µM	0.393
chain 1 D106N G109N	≥ 10 µM	0.301
chain 1 S101C Y107G	≥ 10 µM	0.245
chain 1 M34P V37L	≥ 10 µM	1.01
chain 1 W33E V37T	≥ 10 µM	0.486
chain 1 S101Q Y103L D106G	≥ 10 µM	0.41
chain 1 W33H M34R V37T	≥ 10 µM	0.786
chain 1 S101I G104Q	≥ 10 µM	0.397
chain 1 M105S Y107W	≥ 10 µM	0.826
chain 1 G104L G109K	≥ 10 µM	0.179
chain 1 G104K G109F	≥ 10 µM	0.282
chain 1 F29Y D31E W33G	≥ 10 µM	1.63
chain 1 D31A Y32K M34C	≥ 10 µM	1.1
chain 1 G100W Y103S	≥ 10 µM	0.463
chain 1 Y102L D106G	≥ 10 µM	0.569
chain 1 Y102K W108S	≥ 10 µM	0.534
chain 1 Y103T D106S	≥ 10 µM	0.883
chain 1 Y103T D106Y	≥ 10 µM	0.37
chain 1 Y32T V37G	≥ 10 µM	1.64

Variant	Kd (fluorescein)	yeast surface expression [1]
chain 1 Y107T G109C	≥ 10 µM	0.278
chain 1 F29Q Y32E W33S	≥ 10 µM	0.761
chain 1 D106N W108Q	≥ 10 µM	0.453
chain 1 S101W	≥ 10 µM	0.618
chain 1 S101L	≥ 10 µM	0.497
chain 1 S101D	≥ 10 µM	0.888
chain 1 M34L N35I	≥ 10 µM	0.531
chain 1 F29A V37S	≥ 10 µM	0.545
chain 1 G100F M105D	≥ 10 µM	0.573
chain 1 F29Y N35H	≥ 10 µM	0.732
chain 1 S101I Y102L	≥ 10 µM	0.376
chain 1 D31L N35F	≥ 10 µM	0.446
chain 1 S101R W108V	≥ 10 µM	0.24
chain 1 F29G	≥ 10 µM	0.925
chain 1 M105R Y107G	≥ 10 µM	0.615
chain 1 S30K W33L	≥ 10 µM	0.749
chain 1 G100D G109T	≥ 10 µM	0.21
chain 1 D31A W36H	≥ 10 µM	0.137
chain 1 D31A W36M	≥ 10 µM	0.551

Continued, in another order:

Kd (fluorescein)	Variant	yeast surface expression [1]
3.2 µM	chain 1 G100A Y103K G109T	0.753
≥ 10 µM	chain 1 G100K Y107V	0.3
0.00707 µM	chain 1 F29H V37R	
≥ 10 µM	chain 1 Y32P W36C	0.649
≥ 10 µM	chain 1 T28Y N35Y	0.86
≥ 10 µM	chain 1 S30Q Y32V	0.923
≥ 10 µM	chain 1 D106C W108K	0.314
0.205 µM	chain 1 W33R V37D	1.19
≥ 10 µM	chain 1 F29R Y32P N35E	0.819
≥ 10 µM	chain 1 M34P W36N	0.506
1.08 µM	chain 1 F29R V37E	0.545
0.00122 µM	chain 1 S30K	1.12
0.00101 µM	chain 1 S30P	1.06
0.00205 µM	chain 1 S30D	0.919
0.0944 µM	chain 1 W108M G109E	0.408
≥ 10 µM	chain 1 G100F	0.93
≥ 10 µM	chain 1 Y102L G104C	0.323
0.0038 µM	chain 1 F29Y S30D	0.937
≥ 10 µM	chain 1 M105D D106I	0.844
≥ 10 µM	chain 1 G100S D106C	1.03
≥ 10 µM	chain 1 G100Q D106H	0.182
≥ 10 µM	chain 1 G100N Y107K	0.6
≥ 10 µM	chain 1 Y32T N35P	0.612
0.004 µM	chain 1 Y103E W108I	1.12
0.0171 µM	chain 1 Y103E W108T	1.01
0.0335 µM	chain 1 Y102Q	1.12
≥ 10 µM	chain 1 G100D M105Y	0.228
0.00519 µM	chain 1 M105L	0.924

Kd (fluorescein)	Variant	yeast surface expression [1]
≥ 10 µM	chain 1 S30R N35R	0.535
≥ 10 µM	chain 1 F29I N35A	0.817
≥ 10 µM	chain 1 Y107L W108D	0.326
≥ 10 µM	chain 1 D31W W36E	1.08
≥ 10 µM	chain 1 G100I Y103E	0.879
≥ 10 µM	chain 1 F29H W36C	0.281
5.1 µM	chain 1 Y102E Y103A	0.993
≥ 10 µM	chain 1 T28M V37K	0.399
≥ 10 µM	chain 1 T28Y F29T W33T	0.745
≥ 10 µM	chain 1 N35I V37M	0.626
≥ 10 µM	chain 1 T28S Y32F W36H	0.533
≥ 10 µM	chain 1 G100P Y102W	0.682
2.01 µM	chain 1 S30C V37D	1.73
0.000989 µM	chain 1 Y107H W108T	0.924
0.00606 µM	chain 1 T28W S30F	0.69
0.0221 µM	chain 1 D106E	1.1
0.00251 µM	chain 1 Y107H	1
0.000504 µM	chain 1 T28I	1.07
0.00444 µM	chain 1 T28F	0.842
0.00493 µM	chain 1 Y103R M105K	0.768
0.0391 µM	chain 1 Y32I W36P	0.723
0.205 µM	chain 1 Y32A V37Y	1.23
0.00638 µM	chain 1 T28A D31W	0.862
0.00239 µM	chain 1 S30G M34I	0.889
0.0534 µM	chain 1 S30T W33F	0.909
8.13 µM	chain 1 F29V Y32S	0.999
0.00122 µM	chain 1 T28L S30N	0.861
